B1: FLAG-HsCdt1 (natural protein, human, UniProt Q9H211 1-546, looked up)
chain: MEQRRVTDFFARRRPGPPRIAPPKLACRTPSPARPALRAPASATSGSRKRARPPAAPGRDQARPPARRRLRLSVDEVSSPSTPEAPDIPACPSPGQKIKKSTPAAGQPPHLTSAQDQDTISELASCLQRARELGARVRALKASAQDAGESCTPEAEGRPEEPCGEKAPAYQRFHALAQPGLPGLVLPYKYQVLAEMFRSMDTIVGMLHNRSETPTFAKVQRGVQDMMRRRFEECNVGQIKTVYPASYRFRQERSVPTFKDGTRRSDYQLTIEPLLEQEADGAAPQLTASRLLQRRQIFSQKLVEHVKEHHKAFLASLSPAMVVPEDQLTRWHPRFNVDEVPDIEPAALPQPPATEKLTTAQEVLARARNLISPRMEKALSQLALRSAAPSSPGSPRPALPATPPATPPAASPSALKGVSQDLLERIRAKEAQKQLAQMTRCPEQEQRLQRLERLPELARVLRSVFVSERKPALSMEVACARMVGSCCTIMSPGEMEKHLLLLSELLPDWLSLHRIRTDTYVKLDKAADLAHITARLAHQTRAEEGL
notes: human Cdt1; also called human Cdt1; source: Sf9, baculovirus; purified (anti-FLAG M2 agarose, FLAG peptide elution); also in Sf9 lysate; not shown: FLAG, N-terminal, kept

Assay [1] has as its target T1, FLAG-HsGeminin-His6 (wild type) (Homo sapiens (Human), UniProt O75496).
T1 chain: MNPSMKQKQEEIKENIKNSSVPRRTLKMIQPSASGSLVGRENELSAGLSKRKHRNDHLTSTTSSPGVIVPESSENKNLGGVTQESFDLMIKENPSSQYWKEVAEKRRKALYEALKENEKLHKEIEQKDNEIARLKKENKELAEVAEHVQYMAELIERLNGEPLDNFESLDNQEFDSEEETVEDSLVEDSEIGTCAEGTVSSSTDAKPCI
As to the kind of experiment: co-immunoprecipitation of purified proteins (anti-Geminin, 0.5 M NaCl wash, Western blot). For orientation: A western blot detects proteins with antibodies after separation by electrophoresis.

The next assay has as its target T2, HsMCM467 complex (human, UniProt P33991 1-863; Q14566 1-821; P33993 1-719).
T2 construct: human Mcm4; human Mcm6, untagged; human Mcm7, untagged; source: Sf9 co-infected with baculoviruses for His6-2xFLAG-HsMcm4, HsMcm6 and HsMcm7; purified (Ni-NTA, then FLAG M2 agarose); copies: + +
Description: recruitment to DNA-coupled magnetic beads; two steps: HsORC or control buffer on pUC19-lamin-B2 DNA beads, then HsMCM467 or HsMCM2–7 with HsCdc6 and/or HsCdt1; 90 mM potassium acetate, 4 mM ATP, 37 °C, 30 min; washed with 100 mM potassium glutamate; Western blot. The note with it: both partners purified.

The target in the next assay is T3, HsMCM2–7 complex (human | human (endogenous in 293T), UniProt P49736 1-904; P25205 1-808; P33991 1-863; P33992 1-734; Q14566 1-821; P33993 …).
T3 construct: human Mcm2, full length; Mcm3, endogenous in 293T; Mcm4, endogenous in 293T; Mcm5, endogenous in 293T; Mcm6, endogenous in 293T; Mcm7, endogenous in 293T; also called complete heterohexameric human MCM complex; copies: + + + + +
The assay is described as above. Conditions: both partners purified.

The target of the assay “FLAG-HsCdt1” is B1. Description: co-IP; 60 ng purified FLAG-HsCdt1 with 40 ng wild-type or mutant HsGeminin; rabbit anti-human Geminin polyclonal antibodies on protein A/G plus agarose; PBS plus 1 mg/ml BSA, 4 °C, 3 h; washed with PBS plus 0.5 M NaCl; Western blot. The note with it: both partners purified.

Data on three molecules can be found in publication PMC4215257, “Geminin Inhibits a Late Step in the Formation of Human Pre-replicative Complexes*” (The Journal of Biological Chemistry, 2014).

T2 sequence (P33991 whole entry, chain 1 of 3): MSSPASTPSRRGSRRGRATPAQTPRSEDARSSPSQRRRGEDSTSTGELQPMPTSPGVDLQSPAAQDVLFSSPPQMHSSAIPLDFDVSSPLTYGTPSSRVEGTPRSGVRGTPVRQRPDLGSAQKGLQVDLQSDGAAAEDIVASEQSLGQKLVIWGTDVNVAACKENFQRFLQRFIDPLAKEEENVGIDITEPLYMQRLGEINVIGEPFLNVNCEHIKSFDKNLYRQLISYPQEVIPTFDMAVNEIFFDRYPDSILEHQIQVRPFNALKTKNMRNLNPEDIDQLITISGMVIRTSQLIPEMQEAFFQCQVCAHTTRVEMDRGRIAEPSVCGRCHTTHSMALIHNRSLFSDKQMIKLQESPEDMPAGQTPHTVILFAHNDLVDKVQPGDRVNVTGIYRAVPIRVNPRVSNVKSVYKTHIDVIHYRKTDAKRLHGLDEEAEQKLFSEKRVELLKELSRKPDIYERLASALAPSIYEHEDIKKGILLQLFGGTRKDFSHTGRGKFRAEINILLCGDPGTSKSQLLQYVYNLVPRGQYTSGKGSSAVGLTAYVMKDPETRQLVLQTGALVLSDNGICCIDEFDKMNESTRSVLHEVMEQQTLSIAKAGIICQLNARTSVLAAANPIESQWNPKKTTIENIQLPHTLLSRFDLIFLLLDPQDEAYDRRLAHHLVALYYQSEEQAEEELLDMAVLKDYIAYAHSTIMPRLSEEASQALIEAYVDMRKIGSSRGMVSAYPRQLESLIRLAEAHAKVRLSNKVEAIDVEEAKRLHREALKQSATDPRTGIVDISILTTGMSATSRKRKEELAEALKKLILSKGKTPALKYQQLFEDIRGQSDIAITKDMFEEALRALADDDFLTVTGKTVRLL
T2 sequence (Q14566 whole entry, chain 2 of 3): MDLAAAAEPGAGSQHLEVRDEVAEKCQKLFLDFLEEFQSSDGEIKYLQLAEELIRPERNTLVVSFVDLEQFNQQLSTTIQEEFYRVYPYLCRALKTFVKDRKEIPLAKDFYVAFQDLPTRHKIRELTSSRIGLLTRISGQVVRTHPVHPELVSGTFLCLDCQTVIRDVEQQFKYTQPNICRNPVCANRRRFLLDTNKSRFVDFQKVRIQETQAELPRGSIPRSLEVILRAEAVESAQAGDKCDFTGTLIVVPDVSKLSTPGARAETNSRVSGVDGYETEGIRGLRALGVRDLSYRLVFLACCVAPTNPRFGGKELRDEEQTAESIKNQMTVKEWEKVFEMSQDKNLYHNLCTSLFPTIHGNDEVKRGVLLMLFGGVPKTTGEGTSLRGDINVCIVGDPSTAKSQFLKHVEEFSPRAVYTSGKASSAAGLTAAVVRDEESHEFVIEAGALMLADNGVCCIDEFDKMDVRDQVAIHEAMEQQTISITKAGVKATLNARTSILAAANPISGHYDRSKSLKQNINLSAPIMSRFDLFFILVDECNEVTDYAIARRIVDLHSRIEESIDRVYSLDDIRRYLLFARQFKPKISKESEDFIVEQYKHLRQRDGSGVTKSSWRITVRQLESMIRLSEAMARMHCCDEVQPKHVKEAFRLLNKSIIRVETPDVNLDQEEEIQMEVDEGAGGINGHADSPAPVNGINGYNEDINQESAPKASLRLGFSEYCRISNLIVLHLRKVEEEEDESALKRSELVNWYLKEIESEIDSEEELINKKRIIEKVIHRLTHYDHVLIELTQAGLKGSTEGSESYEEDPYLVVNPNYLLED
T2 sequence (P33993 whole entry, chain 3 of 3): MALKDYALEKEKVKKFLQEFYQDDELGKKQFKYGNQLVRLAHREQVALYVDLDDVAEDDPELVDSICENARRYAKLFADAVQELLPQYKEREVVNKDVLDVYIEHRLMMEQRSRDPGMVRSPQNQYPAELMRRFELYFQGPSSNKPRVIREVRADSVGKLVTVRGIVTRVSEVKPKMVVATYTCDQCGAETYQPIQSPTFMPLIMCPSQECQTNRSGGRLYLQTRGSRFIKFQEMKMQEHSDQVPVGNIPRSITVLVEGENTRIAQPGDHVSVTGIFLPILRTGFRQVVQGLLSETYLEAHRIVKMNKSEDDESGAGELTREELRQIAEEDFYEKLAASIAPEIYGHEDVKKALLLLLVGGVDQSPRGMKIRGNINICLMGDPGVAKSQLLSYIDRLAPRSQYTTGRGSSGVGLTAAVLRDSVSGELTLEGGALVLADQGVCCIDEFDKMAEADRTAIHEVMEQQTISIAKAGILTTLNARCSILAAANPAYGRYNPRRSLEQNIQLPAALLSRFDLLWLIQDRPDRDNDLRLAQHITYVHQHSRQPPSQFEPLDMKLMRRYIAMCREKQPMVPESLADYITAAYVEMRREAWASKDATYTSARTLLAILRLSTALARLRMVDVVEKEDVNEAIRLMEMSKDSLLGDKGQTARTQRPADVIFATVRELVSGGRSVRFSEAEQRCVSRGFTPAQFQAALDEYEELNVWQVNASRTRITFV

Consider B1, for which the binding result (in assay [1]; with HsMCM467 complex) was “binds” in each case.

B2: Myc-HsCdc6 (natural protein, human, UniProt Q99741 1-560, looked up)
chain: MPQTRSQAQATISFPKRKLSRALNKAKNSSDAKLEPTNVQTVTCSPRVKALPLSPRKRLGDDNLCNTPHLPPCSPPKQGKKENGPPHSHTLKGRRLVFDNQLTIKSPSKRELAKVHQNKILSSVRKSQEITTNSEQRCPLKKESACVRLFKQEGTCYQQAKLVLNTAVPDRLPAREREMDVIRNFLREHICGKKAGSLYLSGAPGTGKTACLSRILQDLKKELKGFKTIMLNCMSLRTAQAVFPAIAQEICQEEVSRPAGKDMMRKLEKHMTAEKGPMIVLVLDEMDQLDSKGQDVLYTLFEWPWLSNSHLVLIGIANTLDLTDRILPRLQAREKCKPQLLNFPPYTRNQIVTILQDRLNQVSRDQVLDNAAVQFCARKVSAVSGDVRKALDVCRRAIEIVESDVKSQTILKPLSECKSPSEPLIPKRVGLIHISQVISEVDGNRMTLSQEGAQDSFPLQQKILVCSLMLLIRQLKIKEVTLGKLYEAYSKVCRKQQVAAVDQSECLSLSGLLEARGILGLKRNKETRLTKVFFKIEEKEIEHALKDKALIGNILATGLP
notes: human Cdc6; also called human Cdc6; source: Sf9, baculovirus; purified (anti-c-Myc 9E10 agarose, 9E10 peptide elution); also in Sf9 lysate; not shown: Myc, N-terminal, kept
For the molecule B2, the binding result with HsMCM467 complex and with HsMCM2–7 complex was “binds” each time.

B3: FLAG-HsGeminin-His6 (wild type) (natural protein, human, UniProt O75496 1-209, looked up)
chain: MNPSMKQKQEEIKENIKNSSVPRRTLKMIQPSASGSLVGRENELSAGLSKRKHRNDHLTSTTSSPGVIVPESSENKNLGGVTQESFDLMIKENPSSQYWKEVAEKRRKALYEALKENEKLHKEIEQKDNEIARLKKENKELAEVAEHVQYMAELIERLNGEPLDNFESLDNQEFDSEEETVEDSLVEDSEIGTCAEGTVSSSTDAKPCI
notes: also called wild-type HsGeminin; wt; source: Sf9, baculovirus; purified (Ni-NTA, then anti-FLAG M2 agarose); also in Sf9 lysate; not shown: FLAG, N-terminal, kept; His6, C-terminal, kept
Turning to B3, the binding result in the assay with FLAG-HsCdt1 was “binds”.
